# B1: Eps15 P-short peptide [not stated] / human β2-appendage (700–937) used for ITC [human] (parent complex)
# chain 1: SFGDGFADFSTL
# chain 2: IGMAPGGYVAPKAVWLPAVKAKGLEISGTFTHRQGHIYMEMNFTNKALQHMTDFAIQFNKNSFGVIPSTPLAIHTPLMPNQSIDVSLPLNTLGPVMKMEPLNNLQVAVKNNIDVFYFSCLIPLNVLFVEDGKMERQVFLATWKDIPNENELQFQIKECHLNADTVSSKLQNNNVYTIAKRNVEGQDMLYQSLKLTNGIWILAELRIQPGNPNYTLSLKCRAPEVSQYIYQVYDSILKN
# B2: 6× His human Eps15-MD (530–791) [human] / human β2-appendage (700–937) used for ITC [human] (parent complex)
# chain 1: STSSSETANLNEHVEGQSNLESEPIHQESPARSSPELLPSGVTDENEVTTAVTEKVCSELDNNRHSKEEDPFNVDSSSLTGPVADTNLDFFQSDPFVGSDPFKDDPFGKIDPFGGDPFKGSDPFASDCFFRQSTDPFATSSTDPFSAANNSSITSVETLKHNDPFAPGGTVVAASDSATDPFASVFGNESFGGGFADFSTLSKVNNEDPFRSATSSSVSNVVITKNVFEETSVKSEDEPPALPPKIGTPTRPCPLPPGKRSI
# chain 2: B1 chain 2
# B3: β-arrestin P-long peptide [not stated] / human β2-appendage (700–937) used for ITC [human] (parent complex)
# chain 1: DDDIVFEDFARQRLKGMKDD
# chain 2: B1 chain 2
# Variants of: B1
# Test: ITC
row,Kd,Variant
1,59 µM,chain 2 IGMAPGGYVAPKAVWLPAVKAKGLEISGTFTHRQGHIYMEMNFTNKALQHMTDFAIQFNKNSFGVIPSTPLAIHTPLMPNQSIDVSLPLNTLGPVMKMEPLNNLQVAVKNNIDVFYFSCLIPLNVLFVEDGKMERQVFLATWKDIPNENELQFQIKECHLNADTVSSKLQNNNVYTIAKRNVEGQDMLVQSLKLTNGIWILAELRIQPGNPNYTLSLKCRAPEVSQYIYQVYDSILKN [chain 2 Y189V]

# Variants of: B2
# Test: ITC; stoichiometry (1.9)
row,Kd,Variant
1,11 µM,chain 2 IGMAPGGYVAPKAVWLPAVKAKGLEISGTFTHRQGHIYMEMNFTNKALQHMTDFAIQFNKNSFGVIPSTPLAIHTPLMPNQSIDVSLPLNTLGPVMKMEPLNNLQVAVKNNIDVFYFSCLIPLNVLFVEDGKMERQVFLATWKDIPNENELQFQIKECHLNADTVSSKLQNNNVYTIAKRNVEGQDMLVQSLKLTNGIWILAELRIQPGNPNYTLSLKCRAPEVSQYIYQVYDSILKN [chain 2 Y189V]

# Variants of: B3
# Test: ITC; stoichiometry (1.2)
row,Kd,Variant
1,0.17 µM,chain 2 IGMAPGGYVAPKAVWLPAVKAKGLEISGTFTHRQGHIYMEMNFTNKALQHMTDFAIQFNKNSFGVIPSTPLAIHTPLMPNQSIDVSLPLNTLGPVMKMEPLNNLQVAVKNNIDVFYFSCLIPLNVLFVEDGKMERQVFLATWKDIPNENELQFQIKECHLNADTVSSKLQNNNVYTIAKANVEGQDMLYQSLKLTNGIWILAELRIQPGNPNYTLSLKCRAPEVSQYIYQVYDSILKN [chain 2 R180A]

# Variants of: B3
# Test: ITC
row,Kd,Variant
1,1.7 µM,chain 2 IGMAPGGYVAPKAVWLPAVKAKGLEISGTFTHRQGHIYMEMNFTNKALQHMTDFAIQFNKNSFGVIPSTPLAIHTPLMPNQSIDVSLPLNTLGPVMKMEPLNNLQVAVKNNIDVFAFSCLIPLNVLFVEDGKMERQVFLATWKDIPNENELQFQIKECHLNADTVSSKLQNNNVYTIAKRNVEGQDMLYQSLKLTNGIWILAELRIQPGNPNYTLSLKCRAPEVSQYIYQVYDSILKN [chain 2 Y116A]

# — paper PMC1540706 (2006)
